Experiments:
Assay in all cases: purified protein
[1] = system: NC(=O)c1ccc[n+]([C@@H]2O[C@H](COP(=O)(O)OP(=O)(O)OC[C@H]3O[C@@H](n4cnc5c(N)ncnc54)[C@H](OP(=O)(O)O)[C@@H]3O)[C@@H](O)[C@H]2O)c1; settings: oxidative deamination, 150 mM L-Glu, 80 mM imidazole pH 6.0, 25 °C, pH 6.0
[2] = system: NC(=O)c1ccc[n+]([C@@H]2O[C@H](COP(=O)(O)OP(=O)(O)OC[C@H]3O[C@@H](n4cnc5c(N)ncnc54)[C@H](O)[C@@H]3O)[C@@H](O)[C@H]2O)c1; settings: oxidative deamination, 150 mM L-Glu, 80 mM CHES pH 9.5, 25 °C, pH 9.5
[3] = system: NC(=O)C1=CN([C@@H]2O[C@H](COP(=O)(O)OP(=O)(O)OC[C@H]3O[C@@H](n4cnc5c(N)ncnc54)[C@H](O)[C@@H]3O)[C@@H](O)[C@H]2O)C=CC1; settings: reductive amination, 5 mM α-KG, 50 mM NH4Cl, 80 mM Tris-HCl pH 8.0, 25 °C, pH 8.0
O=C(O)CCC(=O)C(=O)O = settings: reductive amination, 0.2 mM NADH, 50 mM NH4Cl, 80 mM Tris-HCl pH 8.0, 25 °C, pH 8.0
[4] = system: NC(=O)C1=CN([C@@H]2O[C@H](COP(=O)(O)OP(=O)(O)OC[C@H]3O[C@@H](n4cnc5c(N)ncnc54)[C@H](OP(=O)(O)O)[C@@H]3O)[C@@H](O)[C@H]2O)C=CC1; settings: reductive amination, 5 mM α-KG, 50 mM NH4Cl, 80 mM Tris-HCl pH 8.0, 25 °C, pH 8.0

## GdhPa (Pantoea ananatis LMG 5342)
[1]
  Km: 440 ± 50 µM
  Vmax: 0.67 µmol/min/mg
  kcat: 0.52 s⁻¹
  kcat/Km: 1180 M⁻¹ s⁻¹
[2]
  Km: 900 ± 60 µM
  Vmax: 11.6 µmol/min/mg
  kcat: 8.97 s⁻¹
  kcat/Km: 9960 M⁻¹ s⁻¹
[3]
  Km: 70 ± 14 µM
  Vmax: 5.43 µmol/min/mg
  kcat: 4.21 s⁻¹
  kcat/Km: 60100 M⁻¹ s⁻¹
O=C(O)CCC(=O)C(=O)O
  Km: 1300 ± 210 µM
  Vmax: 5.93 µmol/min/mg
  kcat: 4.6 s⁻¹
  kcat/Km: 3540 M⁻¹ s⁻¹
[4]
  Km: 78 ± 17 µM
  Vmax: 6.29 µmol/min/mg
  kcat: 4.87 s⁻¹
  kcat/Km: 62500 M⁻¹ s⁻¹

— article PMC12364357, “Glutamate dehydrogenase from Pantoea ananatis: A new bacterial enzyme with dual coenzyme specificity” (PLOS One, 2025)
